Assay results: patent publication US9120862
Bridge positions count the residues as written; N and C are the ends. Ends that are not written are not given here.

Key:
[1] = target: monoclonal antibody 3C10 (produced by hybridoma cell line ATCC deposit designation PTA-9638); assay: FCS competition: 2 nM Alexa488-PIVKA-II (13-27) tracer + 10 nM mAb 3C10, competitor titrated; apparent diffusion coefficient of the tracer
[2] = target: monoclonal antibody 3C10 (produced by hybridoma cell line ATCC deposit designation PTA-9638); assay: FCS competition: 2 nM Alexa488-PIVKA-II (13-27) premixed with 10 nM mAb 3C10, unlabelled PIVKA-II (13-27) added, overnight; D of the tracer (high D = tracer displaced)

B1: PIVKA-II (13-27) peptide, unlabelled (positive control competitor) (peptide)
peptide: LERECVEETCSYEEA
modifications: disulfide 5-10 (inferred)
[1]
  IC50 (read off the curve): 50 nM
[2]
  Apparent Diffusion Coefficient (D): 174 um^2/sec
